Results on one molecule are retold here after PMC10104018.

The target of data set [1] is T1, RGG-GFP-RGG, TXTL-expressed (UniProt D0PV95 1-168).
T1 chain: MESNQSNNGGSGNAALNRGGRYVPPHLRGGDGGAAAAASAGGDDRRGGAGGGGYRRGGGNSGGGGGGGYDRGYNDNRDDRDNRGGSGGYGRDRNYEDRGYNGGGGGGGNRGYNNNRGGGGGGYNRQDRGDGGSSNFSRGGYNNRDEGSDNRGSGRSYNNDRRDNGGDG
Description: confocal fluorescence co-localization to condensates.

Data set [2] concerns the target T2, RGG-GFP-RGG (His), purified (UniProt D0PV95 1-168).
T2 chain: T1 chain
The data set is described as above.

For UUUUUUUUUUUUUUU (ssRNA) [Cy5-U15], the binding result in data set [1] and in data set [2] was “binds” throughout.
